Measurements from PMC4398645.

Biological target: T1, His6-Arc (Activity-regulated cytoskeleton-associated protein, full length) (mouse), Q9WV31
T1 chain: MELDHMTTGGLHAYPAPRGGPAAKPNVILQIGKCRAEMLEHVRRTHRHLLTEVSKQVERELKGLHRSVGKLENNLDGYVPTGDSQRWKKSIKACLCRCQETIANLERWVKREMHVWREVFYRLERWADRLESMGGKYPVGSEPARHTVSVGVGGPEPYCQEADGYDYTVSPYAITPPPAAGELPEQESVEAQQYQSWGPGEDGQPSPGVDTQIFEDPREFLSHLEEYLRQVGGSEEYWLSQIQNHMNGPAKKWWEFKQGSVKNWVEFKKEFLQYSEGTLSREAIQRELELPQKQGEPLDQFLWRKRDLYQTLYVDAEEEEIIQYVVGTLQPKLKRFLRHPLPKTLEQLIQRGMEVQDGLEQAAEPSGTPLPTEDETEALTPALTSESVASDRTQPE
Experiment: SEC + other: sucrose density gradient centrifugation
Settings: remark: other sources report otherwise

stoichiometry N: 2
B1: His6-Arc (Activity-regulated cytoskeleton-associated protein, full length), Q9WV31 1-396 (natural protein)
chain: MELDHMTTGGLHAYPAPRGGPAAKPNVILQIGKCRAEMLEHVRRTHRHLLTEVSKQVERELKGLHRSVGKLENNLDGYVPTGDSQRWKKSIKACLCRCQETIANLERWVKREMHVWREVFYRLERWADRLESMGGKYPVGSEPARHTVSVGVGGPEPYCQEADGYDYTVSPYAITPPPAAGELPEQESVEAQQYQSWGPGEDGQPSPGVDTQIFEDPREFLSHLEEYLRQVGGSEEYWLSQIQNHMNGPAKKWWEFKQGSVKNWVEFKKEFLQYSEGTLSREAIQRELELPQKQGEPLDQFLWRKRDLYQTLYVDAEEEEIIQYVVGTLQPKLKRFLRHPLPKTLEQLIQRGMEVQDGLEQAAEPSGTPLPTEDETEALTPALTSESVASDRTQPE
